What was measured:
[1] = molecular target: GPAR4^R47S activation site mutant fusion protein
[2] = molecular target: GPAR3^K37S activation site mutant fusion protein
[3] = molecular target: galactosidase-PAR2 (GPAR2) fusion protein
[4] = molecular target: galactosidase-PAR3 (GPAR3) fusion protein
[5] = molecular target: GPAR2^R34S activation site mutant fusion protein
[6] = molecular target: galactosidase-PAR1 (GPAR1) fusion protein [β-galactosidase: P00722]
[7] = molecular target: activation site mutant fusion protein GPAR1^R45S
[8] = molecular target: galactosidase-PAR4 (GPAR4) fusion protein
Chain of galactosidase-PAR4 (GPAR4) fusion protein (chain, as listed by the source, chain 1 of 2): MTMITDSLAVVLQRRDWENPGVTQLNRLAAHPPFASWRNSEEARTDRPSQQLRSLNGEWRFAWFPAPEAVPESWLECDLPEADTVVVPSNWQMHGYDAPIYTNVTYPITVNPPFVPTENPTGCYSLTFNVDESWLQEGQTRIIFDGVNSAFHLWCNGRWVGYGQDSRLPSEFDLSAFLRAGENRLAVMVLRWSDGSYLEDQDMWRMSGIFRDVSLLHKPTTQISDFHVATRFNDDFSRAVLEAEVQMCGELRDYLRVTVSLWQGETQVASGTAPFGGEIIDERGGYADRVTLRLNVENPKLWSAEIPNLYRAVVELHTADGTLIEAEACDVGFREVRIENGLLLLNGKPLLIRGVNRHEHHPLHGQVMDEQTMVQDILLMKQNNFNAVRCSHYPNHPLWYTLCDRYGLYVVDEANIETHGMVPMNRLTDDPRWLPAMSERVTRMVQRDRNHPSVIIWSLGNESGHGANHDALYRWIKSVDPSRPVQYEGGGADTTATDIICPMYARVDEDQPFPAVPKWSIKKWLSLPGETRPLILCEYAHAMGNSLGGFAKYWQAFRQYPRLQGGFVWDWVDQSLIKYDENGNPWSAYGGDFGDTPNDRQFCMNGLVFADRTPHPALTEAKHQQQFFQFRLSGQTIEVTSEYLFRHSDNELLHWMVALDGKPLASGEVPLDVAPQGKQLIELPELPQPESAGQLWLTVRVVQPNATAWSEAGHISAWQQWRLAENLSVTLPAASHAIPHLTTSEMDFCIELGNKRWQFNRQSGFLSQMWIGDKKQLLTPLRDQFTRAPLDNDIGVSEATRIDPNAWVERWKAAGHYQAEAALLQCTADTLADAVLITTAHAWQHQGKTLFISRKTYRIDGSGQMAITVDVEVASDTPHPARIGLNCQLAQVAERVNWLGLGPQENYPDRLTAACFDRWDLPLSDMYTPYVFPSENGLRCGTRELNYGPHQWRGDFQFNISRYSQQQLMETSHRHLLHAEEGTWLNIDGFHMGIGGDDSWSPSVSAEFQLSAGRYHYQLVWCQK
Chain of galactosidase-PAR4 (GPAR4) fusion protein (chain, as listed by the source, chain 2 of 2): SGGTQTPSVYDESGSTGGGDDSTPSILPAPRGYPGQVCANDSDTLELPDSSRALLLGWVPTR

Chain of galactosidase-PAR2 (GPAR2) fusion protein (chain, as listed by the source, chain 1 of 2): as the sequence (chain, as listed by the source, chain 1 of 2) above
Chain of galactosidase-PAR2 (GPAR2) fusion protein (chain, as listed by the source, chain 2 of 2): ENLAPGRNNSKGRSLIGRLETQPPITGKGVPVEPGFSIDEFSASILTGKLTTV
Chain of galactosidase-PAR1 (GPAR1) fusion protein [β-galactosidase: P00722] (P00722 whole entry, chain 1 of 2, the tested form may be a part): as the sequence (chain, as listed by the source, chain 1 of 2) above
Chain of galactosidase-PAR1 (GPAR1) fusion protein [β-galactosidase: P00722] (chain, as listed by the source, chain 2 of 2): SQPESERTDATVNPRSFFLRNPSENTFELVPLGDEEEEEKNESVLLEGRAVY
Chain of galactosidase-PAR3 (GPAR3) fusion protein (chain, as listed by the source, chain 1 of 2): as the sequence (chain, as listed by the source, chain 1 of 2) above
Chain of galactosidase-PAR3 (GPAR3) fusion protein (chain, as listed by the source, chain 2 of 2): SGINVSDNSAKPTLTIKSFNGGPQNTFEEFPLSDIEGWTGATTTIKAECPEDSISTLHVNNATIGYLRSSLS
Chain of GPAR4^R47S activation site mutant fusion protein (chain, as listed by the source R47S, chain 1 of 2): as the sequence (chain, as listed by the source, chain 1 of 2) above, with R47S counted along it
Chain of GPAR4^R47S activation site mutant fusion protein (chain, as listed by the source R47S, chain 2 of 2): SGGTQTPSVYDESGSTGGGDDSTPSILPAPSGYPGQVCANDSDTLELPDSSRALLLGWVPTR

B1: bovine activated protein C (protein)
chain: ANSFLEELRPGNVERECSEEVCEFEEAREIFQNTEDTMAFWSFYSDGDQCEDRPSGSPCDLPCCGRGKCIDGLGGFRCDCAEGWEGRFCLHEVRFSNCSAENGGCAHYCMEEEGRRHCSCAPGYRLEDDHQLCVSKVTFPCGRLGKRMEKKRKTLKRDTNQVDQKDQLDPRIVDGQEAGWGESPWQAVLLDSKKKLVCGAVLIHVSWVLTVAHCLDSRKKLIVRLGEYDMRRWESWEVDLDIKEVIIHPNYTKSTSDNDIALLRLAKPATLSQTIVPICLPDSGLSERKLTQVGQETVVTGWGYRDETKRNRTFVLSFIKVPVVPYNACVHAMENKISENMLCAGILGDPRDACEGDSGGPMVTFFRGTWFLVGLVSWGEGCGRLYNYGVYTKVSRYLDWIYGHIKAQEAPLESQVP
Work on B1 yielded a β-Galactosidase release rate (mmol β-Galactosidase/(molProtease * min)) [1] of at most 0.01, a β-Galactosidase release rate (mmol β-Galactosidase/(molProtease * min)) [2] of at most 0.01 and a β-Galactosidase release rate (mmol β-Galactosidase/(molProtease * min)) [3] of at most 0.01. The “β-Galactosidase release rate (determined in the presence of hirudin)” value [4] was “≦1 * 10^-2 a”, the β-Galactosidase release rate (mmol β-Galactosidase/(molProtease * min)) [5] was at most 0.01 and the “β-Galactosidase release rate (determined in the presence of hirudin)” value [6] was “≦1 * 10^-2 a”. The β-Galactosidase release rate (mmol β-Galactosidase/(molProtease * min)) [7] was at most 0.01 and the β-Galactosidase release rate (mmol β-Galactosidase/(molProtease * min)) [8] was at most 0.01.

B2: human single-chain tPA (protein)
chain: SYQVICRDEKTQMIYQQHQSWLRPVLRSNRVEYCWCNSGRAQCHSVPVKSCSEPRCFNGGTCQQALYFSDFVCQCPEGFAGKCCEIDTRATCYEDQGISYRGTWSTAESGAECTNWNSSALAQKPYSGRRPDAIRLGLGNHNYCRNPDRDSKPWCYVFKAGKYSSEFCSTPACSEGNSDCYFGNGSAYRGTHSLTESGASCLPWNSMILIGKVYTAQNPSAQALGLGKHNYCRNPDGDAKPWCHVLKNRRLTWEYCDVPSCSTCGLRQYSQPQFRIKGGLFADIASHPWQAAIFAKHRRSPGERFLCGGILISSCWILSAAHCFQERFPPHHLTVILGRTYRVVPGEEEQKFEVEKYIVHKEFDDDTYDNDIALLQLKSDSSRCAQESSVVRTVCLPPADLQLPDWTECELSGYGKHEALSPFYSERLKEAHVRLYPSSRCTSQHLLNRTVTDNMLCAGDTRSGGPQANLHDACQGDSGGPLVCLNDGRMTLVGIISWGLGCGQKDVPGVYTKVTNYLDWIRDNMRP
For B2, the β-Galactosidase release rate (mmol β-Galactosidase/(molProtease * min)) [1] was at most 0.01, the β-Galactosidase release rate (mmol β-Galactosidase/(molProtease * min)) [2] was at most 0.01 and the β-Galactosidase release rate (mmol β-Galactosidase/(molProtease * min)) [3] was at most 0.01. It also gave a β-Galactosidase release rate (mmol β-Galactosidase/(molProtease * min)) [4] of 0.03, a β-Galactosidase release rate (mmol β-Galactosidase/(molProtease * min)) [5] of at most 0.01 and a β-Galactosidase release rate (mmol β-Galactosidase/(molProtease * min)) [6] of at most 0.01. It also gave a β-Galactosidase release rate (mmol β-Galactosidase/(molProtease * min)) [7] of at most 0.01 and a β-Galactosidase release rate (mmol β-Galactosidase/(molProtease * min)) [8] of at most 0.01.

B3: human plasmin (protein)
chain: KVYLSECKTGNGKNYRGTMSKTKNGITCQKWSSTSPHRPRFSPATHPSEGLEENYCRNPDNDPQGPWCYTTDPEKRYDYCDILECEEECMHCSGENYDGKISKTMSGLECQAWDSQSPHAHGYIPSKFPNKNLKKNYCRNPDRELRPWCFTTDPNKRWELCDIPRCTTPPPSSGPTYQCLKGTGENYRGNVAVTVSGHTCQHWSAQTPHTHNRTPENFPCKNLDENYCRNPDGKRAPWCHTTNSQVRWEYCKIPSCDSSPVSTEQLAPTAPPELTPVVQDCYHGDGQSYRGTSSTTTTGKKCQSWSSMTPHRHQKTPENYPNAGLTMNYCRNPDADKGPWCFTTDPSVRWEYCNLKKCSGTEASVVAPPPVVLLPDVETPSEEDCMFGNGKGYRGKRATTVTGTPCQDWAAQEPHRHSIFTPETNPRAGLEKNYCRNPDGDVGGPWCYTTNPRKLYDYCDVPQCAAPSFDCGKPQVEPKKCPGRVVGGCVAHPHSWPWQVSLRTRFGMHFCGGTLISPEWVLTAAHCLEKSPRPSSYKVILGAHQEVNLEPHVQEIEVSRLFLEPTRKDIALLKLSSPAVITDKVIPACLPSPNYVVADRTECFITGWGETQGTFGAGLLKEAQLPVIENKVCNRYEFLNGRVQSTELCAGHLAGGTDSCQGDSGGPLVCFEKDKYILQGVTSWGLGCARPNKPGVYVRVSRFVTWIEGVMRNN
In the case of B3, the β-Galactosidase release rate (mmol β-Galactosidase/(molProtease * min)) [1] is reported as 0.26, the β-Galactosidase release rate (mmol β-Galactosidase/(molProtease * min)) [2] is reported as 0.16 and the “cleavage efficiency, against GPAR2^R34S” value [3] is reported as “Plasmin cleaved GPAR2 two times more efficiently than GPAR2^R34S”. The “cleavage rate, against trypsin” value [3] was “only at a 560 fold lower rate than trypsin”, the β-Galactosidase release rate (mmol β-Galactosidase/(molProtease * min)) [3] was 0.67 and the “activity on GPAR3, against thrombin” value [4] was “about 120 times less active than thrombin”. For the same protein, the β-Galactosidase release rate (mmol β-Galactosidase/(molProtease * min)) [4] was 0.34, the β-Galactosidase release rate (mmol β-Galactosidase/(molProtease * min)) [5] was 0.35 and the β-Galactosidase release rate (mmol β-Galactosidase/(molProtease * min)) [6] was 4.1. The β-Galactosidase release rate (mmol β-Galactosidase/(molProtease * min)) [7] was 0.29 and the β-Galactosidase release rate (mmol β-Galactosidase/(molProtease * min)) [8] was 0.48.

B4: human leukocyte elastase (protein)
chain: IVGGRRARPHAWPFMVSLQLRGGHFCGATLIAPNFVMSAAHCVANVNVRAVRVVLGAHNLSRREPTRQVFAVQRIFENGYDPVNLLNDIVILQLNGSATINANVQVAQLPAQGRRLGNGVQCLAMGWGLLGRNRGIASVLQELNVTVVTSLCRRSNVCTLVRGRQAGVCFGDSGSPLVCNGLIHGIASFVRGGCASGLYPDAFAPVAQFVNWIDSIIQ
B4 showed a β-Galactosidase release rate (mmol β-Galactosidase/(molProtease * min)) [1] of 11, a β-Galactosidase release rate (mmol β-Galactosidase/(molProtease * min)) [2] of 93 and a β-Galactosidase release rate (mmol β-Galactosidase/(molProtease * min)) [3] of 24. It also gave a β-Galactosidase release rate (mmol β-Galactosidase/(molProtease * min)) [4] of 50, a β-Galactosidase release rate (mmol β-Galactosidase/(molProtease * min)) [5] of 16 and a β-Galactosidase release rate (mmol β-Galactosidase/(molProtease * min)) [6] of 78. For the same protein, the β-Galactosidase release rate (mmol β-Galactosidase/(molProtease * min)) [7] was 140 and the β-Galactosidase release rate (mmol β-Galactosidase/(molProtease * min)) [8] was 12.

Reference: patent US20030148921
